Common to all, as to experiment: cell-based or functional assay
Experiment [1] deals with T1, r-caspase-3 (His)6 (human, UniProt P42574 29-175; P42574 176-277).
T1 sequence 1: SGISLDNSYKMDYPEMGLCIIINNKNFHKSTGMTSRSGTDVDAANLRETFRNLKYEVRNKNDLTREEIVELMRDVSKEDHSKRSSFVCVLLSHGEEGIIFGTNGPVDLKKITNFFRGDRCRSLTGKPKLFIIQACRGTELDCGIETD
T1 sequence 2: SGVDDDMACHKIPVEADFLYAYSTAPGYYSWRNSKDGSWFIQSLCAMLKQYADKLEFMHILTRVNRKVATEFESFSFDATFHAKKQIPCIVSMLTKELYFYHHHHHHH

For experiment [2], the target named is T2, affinity purified membrane derived caspase-3 from 697 cell heavy membranes (human, UniProt P42574 14-175; P42574 176-277, limits assumed).
T2 chain 1: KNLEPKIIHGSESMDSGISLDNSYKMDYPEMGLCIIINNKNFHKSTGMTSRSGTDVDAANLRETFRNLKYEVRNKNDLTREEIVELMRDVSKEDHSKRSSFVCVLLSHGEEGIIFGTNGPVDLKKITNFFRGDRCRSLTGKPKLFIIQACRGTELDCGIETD
T2 chain 2: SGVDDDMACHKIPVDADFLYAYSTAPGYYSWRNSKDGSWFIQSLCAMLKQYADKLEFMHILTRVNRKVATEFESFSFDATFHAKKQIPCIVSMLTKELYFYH

The target in experiment [3] is MN9D HM (caspase-1 treated) caspase (mouse).
In experiment [4] the target is cortical cell HM (caspase-1 treated) caspase (mouse).
Experiment [5] concerns the target T1, r-caspase-3 (His)6. This is another data set of the same source.
Experiment [6] deals with T3, 697 Bcl-2 HM (caspase-1 treated) caspase (human, UniProt P42574 14-175; P42574 176-277, limits assumed).
T3 chain 1: T2 chain 1
T3 chain 2: T2 chain 2

The target of experiment [7] is T4, 697-neo HM (spontaneous activity) caspase (human, UniProt P42574 14-175, limits assumed).
T4 sequence 1: T2 chain 1
T4 sequence 2: T2 chain 2

The target in experiment [8] is T5, 697-neo HM (caspase-1 treated) caspase (human, UniProt P42574 14-175; P42574 176-277, limits assumed).
T5 chain 1: T2 chain 1
T5 chain 2: T2 chain 2

Ends that are not written are not given here. * marks the point of attachment. Cbz = O=C(OCc1ccccc1)* Where only a bound is given, the exact number is not on record here.

B1: ZEVDald (peptide)
peptide: Cbz-Glu-Val-Asp-aldehyde
SMILES: CC(C)[C@H](NC(=O)[C@H](CCC(=O)O)NC(=O)OCc1ccccc1)C(=O)N[C@H](C=O)CC(=O)O
On to B1, for which the “IC50, inhibition of DEVD-AMC cleavage activity” value stood at 24 nM in experiment [1] and 32 nM in experiment [2].

B2: YVAD-ald (peptide)
peptide: Ac-YVAD-aldehyde
In the case of B2, the “IC50, inhibition of DEVD-amc cleavage” value in experiment [3], in experiment [4] and in experiment [5] was over 10000 nM in each case.

B3: DFLD-ald (peptide)
peptide: DFLD-aldehyde
For the molecule B3, the “IC50, inhibition of DEVD-amc cleavage” value in experiment [3] worked out at 2.5 nM; in experiment [4], 2.3 nM; in experiment [5], 1.5 nM; in experiment [6], 3.6 nM; in experiment [7] it was 3.4 nM; in experiment [8], 4.5 nM. Moreover, the “IC50, inhibition of DEVD-AMC cleavage activity” value was 1.1 nM in experiment [1] and 4.7 nM in experiment [2].

B4: DEVD-ald (peptide)
peptide: DEVD-aldehyde
As for B4, the “IC50, inhibition of DEVD-amc cleavage” value stood at 0.72 nM in experiment [3], 1 nM in experiment [4] and 1 nM in experiment [5]. In addition, the “IC50, inhibition of DEVD-AMC cleavage activity” value in experiment [1] and in experiment [2] was 1 nM in each case.

B5: VEIDald (peptide)
peptide: VEID-aldehyde
Take B5: the “IC50, inhibition of DEVD-AMC cleavage activity” value in experiment [1] is 32 nM; in experiment [2] it was 34 nM.
